Measurements as given in paper PMC7243271 (Biochemistry, 2019).

Key:
[1] = biological target: Nup358-min (residues 2147–2240 of human Nup358) (human, UniProt P49792 2147-2240); assay: SEC-MALS
SEC-MALS = biological target: the molecule itself; assay: SEC-MALS

Binder	stoichiometry N [1]	stoichiometry N (SEC-MALS)
KLC2^TPR (residues 196–480 of mouse kinesin-1 light chain 2 isoform 1) (domain or fragment, UniProt O88448 196-480, looked up) RLRTLHNLVIQYASQGRYEVAVPLCKQALEDLEKTSGHDHPDVATMLNILALVYRDQNKYKDAAHLLNDALAIREKTLGKDHPAVAATLNNLAVLYGKRGKYKEAEPLCKRALEIREKVLGKFHPDVAKQLSNLALLCQNQGKAEEVEYYYRRALEIYATRLGPDDPNVAKTKNNLASCYLKQGKYQDAETLYKEILTRAHEKEFGSVNGENKPIWMHAEEREESKDKRRDRRPMEYGSWYKACKVDSPTVNTTLRTLGALYRPEGKLEAAHTLEDCASRSRKQG	1	
Nup358-KLC2-fusion protein (other, human | mouse, UniProt P49792 2147-2240, looked up) LDIPLQTPHKLVDTGRAAKLIQRAEEMKSGLKDFKTFLTNDQTKVTEEENKGSGTGAAGASDTTIKPNPENTGPTLEWDNYDLREDALDDSVSSRLRTLHNLVIQYASQGRYEVAVPLCKQALEDLEKTSGHDHPDVATMLNILALVYRDQNKYKDAAHLLNDALAIREKTLGKDHPAVAATLNNLAVLYGKRGKYKEAEPLCKRALEIREKVLGKFHPDVAKQLSNLALLCQNQGKAEEVEYYYRRALEIYATRLGPDDPNVAKTKNNLASCYLKQGKYQDAETLYKEILTRAHEKEFGSVNGENKPIWMHAEEREESKDKRRDRRPMEYGSWYKACKVDSPTVNTTLRTLGALYRPEGKLEAAHTLEDCASRSRKQG		2
